The text below walks through data of the Immune Epitope Database (IEDB).

Broadly, the Kd is the free concentration of one partner at which half of the binding sites on the other are occupied at equilibrium, for simple one-to-one binding. The term IC50 denotes the concentration that gives 50% inhibition. High values mean a need for much substance, low ones inhibition by little substance.

One test addresses HLA-A*80:01. Description: IEDB peptide-MHC binding, purified MHC/direct/fluorescence; filed as Kd, often an IC50 or EC50 that approximates it; ≥ and ≤ were set here for values at or beyond the usual limits of such assays.
Test [1] addresses HLA-A*01:01. The description is as above.
The target in test [2] is HLA-A*30:01. The description is as above. Conditions: source organism: Bacillus cereus NVH0597-99.
Test [3] concerns the target HLA-A*30:01. Description: IEDB peptide-MHC binding, purified MHC/competitive/radioactivity; filed as Kd, often an IC50 or EC50 that approximates it; ≥ and ≤ were set here for values at or beyond the usual limits of such assays. Conditions: source organism: Vaccinia virus WR.
The target of a further test is HLA-B*58:01. The experiment in a line: IEDB peptide-MHC binding, purified MHC/direct/fluorescence; filed as Kd, often an IC50 or EC50 that approximates it; ≥ and ≤ were set here for values at or beyond the usual limits of such assays.
Another test has as its target HLA-A*68:02. The description is as above. Conditions: source organism: Camelpox virus M-96.
For a further test, the target named is HLA-B*48:01. Described as above. Conditions: source organism: Camelpox virus M-96.
Another test addresses HLA-A*69:01. Described as above.
Another test has as its target HLA-A*11:01. The test is described as above. As to conditions: source organism: Camelpox virus M-96.
Another test deals with HLA-B*08:02. The test is described as above.
The target in a further test is HLA-B*07:02. Described as above.
In another test the target is HLA-B*40:01. The description is as above.
In another test the target is HLA-A*31:01. The description is as above. As to conditions: source organism: Camelpox virus M-96.
The target in a further test is HLA-B*46:01. Described as above.
The target in another test is HLA-A*03:01. The description is as above.
The next test concerns the target HLA-B*15:17. Described as above. Conditions: source organism: Camelpox virus M-96.
The target in test [4] is HLA-A*02:03. Description: IEDB peptide-MHC binding, purified MHC/competitive/fluorescence; filed as Kd, often an IC50 or EC50 that approximates it; ≥ and ≤ were set here for values at or beyond the usual limits of such assays. Conditions: source organism: Vaccinia virus WR.
For test [5], the target named is HLA-B*15:01. The description is as above. Conditions: source organism: Vaccinia virus WR.
The next test deals with HLA-A*26:03. The description is as above. As to conditions: source organism: Vaccinia virus WR.
The target in test [6] is HLA-A*02:06. The description is as above. Conditions: source organism: Vaccinia virus WR.
The next test deals with HLA-B*35:01. Described as above. Conditions: source organism: Vaccinia virus WR.
Test [7] deals with HLA-A*01:01. The test is described as above. Conditions: source organism: Vaccinia virus WR.
Another test addresses HLA-A*26:01. The description is as above. Conditions: source organism: Vaccinia virus WR.
The target in test [8] is HLA-B*27:05. Described as above. As to conditions: source organism: Vaccinia virus WR.
The target of a further test is HLA-A*26:02. The test is described as above. Conditions: source organism: Vaccinia virus WR.
A further test has as its target HLA-B*57:01. Described as above. As to conditions: source organism: Vaccinia virus WR.
For test [9], the target named is HLA-A*02:01. The test is described as above. As to conditions: source organism: Vaccinia virus WR.
The target of a further test is HLA-A*02:11. The experiment in a line: IEDB peptide-MHC binding, purified MHC/direct/fluorescence; filed as Kd, often an IC50 or EC50 that approximates it; ≥ and ≤ were set here for values at or beyond the usual limits of such assays. As to conditions: source organism: Influenza A virus H3N2.
Test [10] has as its target HLA-A*02:03. The description is as above. As to conditions: source organism: Influenza A virus H3N2.
The target in the next test is HLA-A*24:02. Described as above. As to conditions: source organism: Influenza A virus (A/turkey/Minnesota/1200/1980(H7N3)).
In test [11] the target is HLA-B*15:01. Described as above. As to conditions: source organism: Influenza A virus (A/turkey/Minnesota/1200/1980(H7N3)).
The target in a further test is HLA-B*08:01. The test is described as above. As to conditions: source organism: Influenza A virus (A/turkey/Minnesota/1200/1980(H7N3)).
The target of test [12] is HLA-A*02:06. The test is described as above. Conditions: source organism: Influenza A virus H3N2.
The target of test [13] is HLA-B*27:05. The test is described as above. Conditions: source organism: Influenza A virus (A/turkey/Minnesota/1200/1980(H7N3)).
The target of a further test is HLA-A*02:12. The description is as above. As to conditions: source organism: Influenza A virus H3N2.
The target of the next test is HLA-A*02:19. The description is as above. As to conditions: source organism: Influenza A virus H3N2.
The target of another test is HLA-B*44:02. Described as above. As to conditions: source organism: Influenza A virus (A/turkey/Minnesota/1200/1980(H7N3)).
Test [14] addresses HLA-A*02:01. Described as above. As to conditions: source organism: Influenza A virus (A/Puerto Rico/8/34/Mount Sinai(H1N1)).
For test [15], the target named is HLA-A*01:01. The experiment in a line: IEDB peptide-MHC binding, purified MHC/competitive/fluorescence; ≥ and ≤ were set here for values at or beyond the usual limits of such assays. Conditions: source organism: Mus musculus.
For the next test, the target named is HLA-A*25:01. The description is as above. Conditions: source organism: Mus musculus.
The mark [16] stands for this setting: source organism: Bacillus anthracis.
The mark [17] stands for this setting: source organism: Camelpox virus M-96.
The mark [18] stands for this setting: source organism: Influenza A virus (A/turkey/Minnesota/1200/1980(H7N3)).

Consider TTLRYPIGK, for which the results for the Kd with HLA-A*80:01 (setting [16]), in the test with HLA-A*01:01 [1] (setting [16]) and in the test with HLA-A*30:01 [2] were at least 20 µM, at least 20 µM and 0.081 µM, respectively.

Turning to KVFDKSLLY, the Kd with HLA-A*30:01 [3] was 0.071 µM; in the test with HLA-B*58:01 (source organism: Variola virus) it was 0.005 µM; with HLA-A*68:02 it was at least 20 µM; with HLA-B*48:01 it was at least 20 µM; in the test with HLA-A*69:01 (setting [17]), at least 20 µM; with HLA-A*11:01, 0.004 µM. Also, the Kd with HLA-B*08:02 (source organism: Variola virus) was at least 20 µM; with HLA-B*07:02 (setting [17]) it was at least 20 µM; with HLA-B*40:01 (setting [17]), at least 20 µM; with HLA-A*31:01, 2.76 µM; in the test with HLA-B*46:01 (setting [17]), at least 20 µM; in the test with HLA-A*03:01 (setting [17]), 0.035 µM. Besides, the Kd was 0.0023 µM with HLA-B*15:17; at least 20 µM with HLA-A*02:03 [4]; 0.374 µM with HLA-B*15:01 [5]; at least 20 µM with HLA-A*26:03; 3.1 µM in the test with HLA-A*02:06 [6]; 0.0082 µM in the test with HLA-B*35:01. The Kd with HLA-A*01:01 [7] was 2.48 µM; in the test with HLA-A*26:01, 1.75 µM; in the test with HLA-B*27:05 [8], at least 20 µM; with HLA-A*26:02, 1.99 µM; with HLA-B*57:01, 0.424 µM; in the test with HLA-A*02:01 [9] it was at least 20 µM.

With VTTEVAFGL, the Kd with HLA-A*02:11 was at most 0.001 µM; with HLA-B*58:01 (setting [18]), 0.494 µM; in the test with HLA-A*69:01 (setting [18]) it was at least 20 µM; in the test with HLA-A*02:03 [10], 0.517 µM; in the test with HLA-A*24:02, at least 20 µM; with HLA-B*15:01 [11] it was at least 20 µM. The Kd in the test with HLA-B*08:01 is at least 20 µM; with HLA-B*08:02 (source organism: Influenza A virus H3N2), at least 20 µM; with HLA-B*07:02 (setting [18]), at least 20 µM; with HLA-A*02:06 [12], at most 0.001 µM; with HLA-A*01:01 [1] (setting [18]), at least 20 µM; with HLA-B*40:01 (source organism: Influenza A virus (A/Puerto Rico/8/34/Mount Sinai(H1N1))), 15 µM. For the same sequence, the Kd with HLA-B*27:05 [13] was at least 20 µM; in the test with HLA-A*02:12 it was 0.186 µM; in the test with HLA-A*02:19, 0.656 µM; in the test with HLA-B*44:02, at least 20 µM; with HLA-A*02:01 [14] it was 0.069 µM; in the test with HLA-B*46:01 (setting [18]), at least 20 µM. Further, the Kd in the test with HLA-A*03:01 (setting [18]) was at least 20 µM.

With FSSCPVAY, the IC50 in the test with HLA-A*01:01 [15] is 1.94 µM; in the test with HLA-A*25:01, at least 20 µM.

The sequence RVERIKSEY returned a Kd with HLA-A*80:01 (source organism: Yellow fever virus) of 0.0338 µM.
